According to the supplement of paper PMC10126150:
± gives the standard deviation of the averaged measurements.

Each sequence was assayed on ATP (assay: switch fluorescence ratio, 500 uM ATP over buffer (Cy3 cluster intensity, sum of 5 cycles each) (fold (ratio)); higher = stronger signal-on switching upon ATP binding; sequences stand for … in TCGTCGGCAGCGTCAGATGTGTATAAGAGACAGTTTTTTTTTTTTTTTTTTTTTTTTT…TC). Conditions: aptamer strand: ATP DNA aptamer (quencher-CACCTGGGGGAGTATTGCGGAGGAAGG + anchor), 100 nM annealed; ATP concentration: 500 uM.
Summary of the method: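 Between each of five buffer/ATP cycles, the flow-cell was stripped with NaOH and re-annealed. Each cycle imaged Cy3-labelled switching-strand clusters, annealed to 100 nM quencher-labelled ATP aptamer on a modified Illumina MiSeq flow-cell, first in selection buffer and then after 15 min with 500 uM ATP at 22 °C. The fluorescence ratio is summed target-cycle over summed buffer-cycle Cy3 intensity per cluster, averaged per switch-domain sequence, with clusters outside 100-1000 RFU excluded.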
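Also: ATP exposure 15 min at 22 °C before imaging.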

Sequence	switch fluorescence ratio
TGTCGTTGGG	0.9566 ± 0.0035
TATTATGGGT	0.982 ± 0.036
GGGAGACCAA	0.9822 ± 0.0031
TCTGGAATTG	1.01 ± 0.03
GGGGACTTAG	0.9854 ± 0.0025
GTTAACGGAC	1.17 ± 0.098
TTGTTTTTAG	0.988 ± 0.04
CGGGGGGCGC	0.969 ± 0.014
TTGTGTGTTA	0.9687 ± 0.0052
ATCTGGGGTA	0.972 ± 0.034
TGGGCGTTCT	1.03 ± 0.081
TTACAGGACG	1.2 ± 0.22
TTTGGTCATA	0.983 ± 0.024
GGGCCCGGCA	0.9814 ± 0.0049
ATGATGGCTT	1.006 ± 0.0027
CGGCTCTCTT	1.009 ± 0.0017
GGAAGGTATG	1.02 ± 0.071
GACGGGGACC	1.06 ± 0.063
GGGTCGCAGA	1.04 ± 0.058
CCGTTTGGCA	1.15 ± 0.022
CGTAGATACA	1.03 ± 0.036
ATCTCGGTTG	1.019 ± 0.0085
CGTTTGGTGT	1.0115 ± 1.5e-05

Sequence	switch fluorescence ratio
GTTCCTTAGG	1.01 ± 0.026
CCAACATGAT	1.017 ± 0.007
ACGGAATATT	1.171 ± 0.0019
TACCGTACGA	1.5 ± 0.019
AGTTGTTAGT	0.969 ± 0.021
GGGGTATGTA	0.987 ± 0.055
GGTTTGAGGT	0.993 ± 0.027
TTTTCCATTT	0.99 ± 0.023
GGGTGCTGGG	0.999 ± 0.042
CTCGTTGCTT	1.03 ± 0.037
GATGTTGCGT	1.018 ± 0.004
ATCGTCGGGA	0.977 ± 0.02
GTCGAAGGTG	1.11 ± 0.03
AGATTTTCGC	1 ± 0.0091
TGGGGACGTG	1.013 ± 0.0047
TGGGGTACTT	0.973 ± 0.027
TAGTTGTAGG	1.04 ± 0.051
GTGGCGCTTT	0.976 ± 0.023
AACTCATTCA	1.02 ± 0.025
ATTATGGTTA	0.9884 ± 0.0097
ACGGGTGGGT	1.08 ± 0.15
TTGGGGTTTG	0.975 ± 0.038
GTCGTAGGGA	0.973 ± 0.013

Sequence	switch fluorescence ratio
CAATTTTATA	1.033 ± 0.0026
TCAGGGTTTC	0.984 ± 0.013
TTTATATAGA	0.996 ± 0.033
TGAGGAGGTT	0.981 ± 0.072
TATGGGGTTG	1.03 ± 0.12
ATCAATCCTT	1.03 ± 0.029
TAGAAACCCG	1.04 ± 0.024
GTTGTGTCCG	1.01 ± 0.067
GGTACTTGGA	1.04 ± 0.032
ATGGACTATC	1.03 ± 0.046
TATAAACAGG	0.998 ± 0.023
TTCGGCCGGT	0.998 ± 0.011
CTTTGTGGGG	1.01 ± 0.029
GGGGAGGGGA	1.01 ± 0.04
TTTGAGGTGA	1.04 ± 0.07
AGGCTGGTCT	0.952 ± 0.1
GGAGTCTTGT	1.01 ± 0.03
CAGTAATTGT	0.9856 ± 0.0029
CAATCTAAAT	0.969 ± 0.027
CGGTTCTGTG	1 ± 0.012
AAGACTGAGG	0.956 ± 0.026
TATGGTCATT	0.99 ± 0.015
CTACTTATTT	1.02 ± 0.024

Sequence	switch fluorescence ratio
GGGCCACCAG	1.01 ± 0.032
AGCAGGTGTG	1.18 ± 0.048
CTATACGGGG	0.976 ± 0.025
GCTAAAGAAA	0.974 ± 0.028
CTGAGGGTAT	1.006 ± 0.0098
CGGATGAGGA	0.984 ± 0.01
ATGGGAGAAG	0.95776 ± 0.00073
TCTGATTATG	0.987 ± 0.011
TATTGCCAGG	1.1 ± 0.036
TTTTGGTATA	1.05 ± 0.055
GTGAAGAAGA	0.991 ± 0.0048
GAAGGGCGGA	1.018 ± 0.0045
TTTTGACCGA	0.976 ± 0.073
ATGGGACAGC	0.975 ± 0.033
TTTTGTTTCA	1 ± 0.022
TGAGGTCGCG	0.9759 ± 0.0035
GCTAGTATAA	0.987 ± 0.027
ATACCGAAGT	1.17 ± 0.18
TCCTTCAAAG	1.08 ± 0.085
TTTGATGATA	0.981 ± 0.014
TCATTTGGAT	1 ± 0.023
GGTCTTGGCA	0.985 ± 0.052
TTTGGATTGG	0.967 ± 0.023

Sequence	switch fluorescence ratio
ATGCGTGACA	1.02 ± 0.036
AAATTGAGAG	1.004 ± 0.0021
CTTCGGTGGC	1.01 ± 0.04
GATGTAGGGA	1.02 ± 0.029
GATTGCAGTA	0.983 ± 0.036
AGGGTTAGGC	0.933 ± 0.02
GTTAGCTAGG	1.04 ± 0.026
CAGGCCGGAG	1.01 ± 0.022
TGGGCGTGTG	1.02 ± 0.017
GGCTCTCGTA	0.992 ± 0.012
ACGATTATTC	1.07 ± 0.039
TTCGATTTGG	1.03 ± 0.0072
GTCGTTGCTA	1.01 ± 0.015
AAGCTGGGGG	0.969 ± 0.033
GTTTTCAACA	0.98916 ± 0.00045
CTTGAGTGTG	0.9827 ± 0.006
CCGGCCCCGG	1.68 ± 0.028
GTGGTGCCAA	1.01 ± 0.026
GTGGCCATGC	1.01 ± 0.025
TCCATCTGGG	1.01 ± 0.032
TTTCCGGCGG	1.12 ± 0.09
AAGCCGCTCG	1 ± 0.015
ATGTGATAGG	1.01 ± 0.058

Sequence	switch fluorescence ratio
TTCATGTGGA	1.017 ± 0.0047
GCTGTGAGTT	0.9821 ± 0.006
TTATTCCCAG	1.016 ± 0.0014
TCATAGTATG	0.982 ± 0.04
GGAAGAGGAG	0.983 ± 0.014
TTGAGAAGTT	1.01 ± 0.021
AGGGGACGGG	1.05 ± 0.037
AGATAGGTTG	0.974 ± 0.038
TTATGACAGG	0.993 ± 0.022
AAGGCTGAGG	0.985 ± 0.018
TCAGAATATT	0.978 ± 0.023
TACGGCTATC	1.16 ± 0.047
AAGAGGGGCG	1.022 ± 0.0032
CTTTTTATGT	0.96 ± 0.016
CGATTGATCA	1.004 ± 0.0075
CAAGGGGTCG	0.9946 ± 0.0066
TTATGAATAT	0.9824 ± 0.005
TGGAGGTTAT	0.9935 ± 0.0081
CGGTTGACGG	0.9494 ± 0.0017
TTTAGTTACG	0.987 ± 0.013
GGAGACGTTA	1.02 ± 0.052
CGAAGGGTAA	1.02 ± 0.028
GGGCTCATGG	1.042 ± 0.0061

Sequence	switch fluorescence ratio
AGGGTGAATT	0.9848 ± 0.0075
ATGCTATTGT	1.03 ± 0.046
GGGCGGGATG	0.984 ± 0.037
CCATATTTAG	0.996 ± 0.028
CCAATTTATG	0.9919 ± 0.0078
CGGGTGCCAT	0.994 ± 0.018
GGGGTGTTGG	1.01 ± 0.019
GGACGGGAAC	1.13 ± 0.055
GAACTCTACT	1.14 ± 0.044
CGATTGAATC	0.991 ± 0.021
GGTTTAGATG	1.02 ± 0.015
TTGGGGGCAA	1.57 ± 0.84
AGTTGAGGAA	1 ± 0.026
CTTGGAGGAA	0.999 ± 0.044
GGGTTGTTTC	0.973 ± 0.027
GGCGCAATTT	2.4 ± 0.27
TGAAGGCGGG	1 ± 0.039
CTAATGGGAG	0.9726 ± 0.0092
AATGAAAGCC	1.26 ± 0.39
